Laboratory results: US8603949B2, “Libraries of optimized cytochrome P450 enzymes and the optimized P450 enzymes” (California Institute of Technology, priority 2003, dated 2013)

B1: Chimera 46-73: CYP102A1 heme domain with residues 46-73 from CYP102A2 (protein)
chain: TIKEMPQPKTFGELKNLPLLNTDKPVQALMKIADELGEIFKFEAPAGTTIVVSGHELVKEVCDEERFDKSIEGALKFVRDFAGDGLATSWTHEKNWKKAHNILLPSFSQQAMKGYHAMMVDIAVQLVQKWERLNADEHIEVPEDMTRLTLDTIGLCGFNYRFNSFYRDQPHPFITSMVRALDEAMNKLQRANPDDPAYDENKRQFQEDIKVMNDLVDKIIADRKASGEQSDDLLTHMLNGKDPETGEPLDDENIRYQIITFLIAGHETTSGLLSFALYFLVKNPHVLQKAAEEAARVLVDPVPSYKQVKQLKYVGMVLNEALRLWPTAPAFSLYAKEDTVLGGEYPLEKGDELMVLIPQLHRDKTIWGDDVEEFRPERFENPSAIPQHAFKPFGNGQRACIGQQFALHEATLVLGMMLKHFDFEDHTNYELDIKETLTLKPEGFVVKAKSKKIPLGGIPSPST
modifications: Chimeric Cytochrome P450 heme group sequence from Bacillus megaterium and Bacillus subtilis
notes: CYP102A1 heme domain with residues 46-73 from CYP102A2
B2: Chimera F37233: chimera of the CYP102A1/A2/A3 seven-crossover library (protein)
chain: KQASAIPQPKTYGPLKNLPHLEKEQLSQSLWRIADELGPIFRFDFPGVSSVFVSGHNLVAEVCDEKRFDKNLGKGLQKVREFGGDGLATSWTHEPNWQKAHRILLPSFSQKAMKGYHSMMLDIAVQLIQKWARLNPNEAVDVPGDMTRLTLDTIGLCGFNYRFNSYYRDQPHPFITSMVRALDEAMNKLQRANPDDPAYDENKRQFQEDIKVMNDLVDSIIAERRANGDQDEKDLLARMLNVEDPETGEKLDDENIRFQIITFLIAGHETTSGLLSFATYFLLKHPDKLKKAYEEVDRVLTDAAPTYKQVLELTYIRMILNESLRLWPTAPAFSLYAKEDTVLGGEYPLEKGDELMVLIPQLHRDKTIWGDDVEEFRPERFENPSAIPQHAFKPFGNGQRACIGQQFALQEATMVLGLVLKHFELINHTGYELKIKEALTIKPDDFKITVKPRKTAAINVQRKEQA
modifications: Chimeric Cytochrome P450 heme group polypeptide sequence from CYP102A1 (Bacillus megaterium); CYP102A2 (Bacillus subtilis) and CYP102A3 (Bacillus subtilis)
notes: chimera of the CYP102A1/A2/A3 seven-crossover library
B3: Chimera F3748: chimera of the CYP102A1/A2/A3 seven-crossover library (protein)
chain: KQASAIPQPKTYGPLKNLPHLEKEQLSQSLWRIADELGPIFRFDFPGVSSVFVSGHNLVAEVCDEERFDKSIEGALEKVRAFSGDGLATSWTHEPNWRKAHNILMPTFSQRAMKDYHEKMVDIATQLIQKWSRLNPNEEIDVADDMTRLTLDTIGLCGFNYRFNSFYRDQPHPFITSMVRALDEAMNKLQRANPDDPAYDENKRQFQEDIKVMNDLVDRMIAERKANPDENIKDLLSLMLYAKDPVTGETLDDENIRYQIITFLIAGHETTSGLLSFATYFLLKHPDKLKKAYEEVDRVLTDAAPTYKQVLELTYIRMILNESLRLWPTAPAFSLYAKEDTVLGGEYPISKGQPVTVLIPKLHRDQNAWGPDAEDFRPERFEDPSSIPHHAYKPFGNGQRACIGMQFALQEATMVLGLVLKHFELINHTGYELKIKEALTIKPDDFKITVKPRKTAAINVQRKEQA
modifications: Chimeric Cytochrome P450 heme group polypeptide sequence from CYP102A1 (Bacillus megaterium); CYP102A2 (Bacillus subtilis) and CYP102A3 (Bacillus subtilis)
notes: as for B2

Experiments:
[1] = Peroxygenase substrate activity profile; type: biochemical; conditions: 20 mM H2O2
Experimental: (§1) The chimeras were assayed for hydroxylation of p-nitrophenoxydodecanoic acid (12-pNCA), a fatty acid analog that is hydroxylated by CYP102A1 and CYP102A2 to yield p-nitrophenolate (Schwaneberg et al., Anal Biochem 269,359-366 (1999)). […] When hydroxylation rates for the parent CYP102 enzymes were monitored using the maximum soluble concentrations of these substrates, activity could only be detected on 2-phenoxy-ethanol.
Chimeras were assayed for peroxygenase activity on 12-pNCA, 2-phenoxy -ethanol and allyloxy-benzene. […] Rates are reported in nmol product/nmol P450/minute. […] Those with no activity include 65-256 and 277-365. Those with new activity include 165-256, 191-335, and 43-135.
This Example provides one method by which peroxygenase activity of a P450 enzyme may be characterized. First order rates for p-nitrophenolate accumulation were determined using 1 μM enzyme, 20 mM H2O2, 250 μM 12-pNCA and 0.5% dimethyl sulfoxide (DMSO) in 100 mM Tris-HCl (pH 8.2) at room temperature. Enzyme, substrate, buffer and DMSO were combined in a cuvette and zeroed at 410 nm. Reaction mixtures were incubated for 4 minutes and initiated by the addition of H2O2 to a final concentration of 20 mM. Initial rates were determined by monitoring the accumulation of p-nitrophenolate at 410 nm, and data from the first six seconds were used to determine initial rates. […] The extinction coefficient of p-nitrophenolate is 13,200 M^−1cm^−1 (Schwaneberg et al., Anal Biochem 269:359-366 (1999)).
(§2) Rates on 2-phenoxy-ethanol and allyloxy-benzene were determined using 2 μM enzyme, 20 mM H2O2, 1% DMSO, and 1% acetone in 100 mM N-[2-hydroxyethyl]piperazine-N′-[3-propanesulfonic acid] (Epps) (pH 8.2) at room temperature. Substrate concentrations for 2-phenoxy-ethanol (100 mM) and allyloxy benzene (50 mM) maintained saturation. Reactions were initiated by the addition of H2O2 and quenched at appropriate times using an equal volume of a solution containing 4M urea and 100 mM NaOH. 120 μl of 0.6% 4-AAP was added, followed by mixing and addition of 120 μl of 0.6% potassium persulfate. Color was allowed to develop for 20 minutes before absorbance was read at 500 nm. Rates were determined from the linear region of the time course. The major products were determined by GC/MS to be the hemiacetal, which decomposes to phenol. The extinction coefficient for the 4-AAP/phenol complex was determined to be 4,800 M^−1cm^−1. The results can be seen in FIG. 4.

[2] = Peroxygenase activity on 2-phenoxy-ethanol (4-AAP assay); type: biochemical
Experimental: as §1, §2

[3] = Peroxidase activity with ABTS and H2O2; type: biochemical; conditions: 10 mM ABTS, 20 mM H2O2, pH 5.0; activities <0.2 not detectable (N.D.)
Text: P450s can reduce peroxide to water (and a proton) using a mechanism similar to that of peroxidases, although the intrinsic rate for P450s is many orders of magnitude slower. (Mansuy, D., Comp Biochem Physiol C Pharmacol Toxicol Endocrinol 121, 5-14 (1998)). It has been proposed that the earliest P450 function may have been as a peroxidase. (Gotoh, O., Cytochrome P450, 2nd Edition, pp. 255-272 (1993)). To investigate how recombination affects P450 peroxidase activity, the colorimetric substrate 2,2′-azino-bis(3-ethylbenzothiazoline-6-sulfonate) (ABTS) was used to monitor this reaction (Childs et al., Biochem J 145,93-103 (1975)).
This example provides an example of how one can measure peroxidase activity. Initial rates of peroxidase activity were measured by monitoring the accumulation of the radical cation of ABTS at 414 nm (Childs et al., Biochem J., 145:93-103 (1975)). Enzyme (1 μM) was mixed with 10 mM ABTS in 200 mM phosphate buffer (pH 5.0) in a cuvette at room temperature. Samples were zeroed and reactions were initiated with the addition of H2O2 to a concentration of 20 mM. The absorbance at 414 nm was monitored for 5 minutes. Rates were determined from the steepest portion of the time course. An extinction coefficient of […] for ABTS was used.

[4] = Thermostability (loss of Soret band at increasing temperatures); type: physicochemical; conditions: cell extracts heated 10 minutes
Experimental: Thermostability was assayed by monitoring the loss of the Soret band at increasing temperatures. […] However, thermostability may be important for retention of catalytic activity: the two chimeras that lacked peroxygenase activity were also the least thermostable.
Cell extracts were heated in a thermocycler for 10 minutes at various temperatures, followed by cooling to 4° C. Extracts were centrifuged for 5 minutes at 3500×g to remove any precipitates. Carbon monoxide reduced difference spectroscopy was used to quantitate the amount of P450. The reduction of the carbon monoxide peak was monitored over a range of temperatures.

[5] = Library plate screen on five test substrates (4-AAP, 12-pNCA); type: biochemical; conditions: seven-crossover library, cell lysate, 20 mM H2O2
Experimental: These library plates were replicated and grown in 96 deep-well plates in 900 μL of LB media with 100 μg/ml ampicillin overnight at 30° C. and 250 rpm. 150 μL of this was then transferred to 850 μL of induction media (TB-media with final concentrations of 100 μg/ml ampicillin, 25 μg/ml thiamine, 0.5 mM δ-aminolevulinic acid and 0.6 mM IPTG). These were grown for 20-24 hours at 25° C. and 190 rpm, harvested by centrifugation at 5000×g for 8 minutes and frozen at -20° C. for at least 24 hours. Cells were resuspended using a pipetting robot (Multimek 96, Beckman) and lysed in 400 μL of Epps or Tris buffer (100 mM, pH 8.2) containing 0.8 mg/ml lysozyme and 2 units/mL DNaseI for 1 hour at 37° C. Plates were then spun for 8 minutes at 5000×g and 4° C. to pellet cell debris. 80 μL of lysate was transferred into 4 separate 96 well plates for each library plate. […] On one plate, high -throughput carbon monoxide spectroscopy was done in order to assess relative amounts of P450 (Otey, C. R. High-throughput carbon monoxide binding assay for cytochromes P450. In Directed Enzyme Evolution: Screening and Selection Methods, F. H. Arnold and […]. 137-139 (2003)) with 0.1 M sodium hydrosulfite being used in place of 0.4 M. The other three plates were used to assay activity on different substrates. Examples of assays that have been or could be used include the 4-AAP (Otey, C. R., and Joern, J. M. High-throughput screen for aromatic hydroxylation. In Directed Enzyme Evolution: Screening and Selection Methods, F. H. Arnold and […]. 141-148 (2003)), 12-pNCA (Schwaneberg et al., Anal. Biochem., 269:359-366 (1999), NBP assay ([…], et al., J Biomol Screen, 9:141-146 (2004)), 7-ethoxyresorufin (Sieber et al., Nat Biotechnol., 19:456-460 (2001)), vivid substrate assays (Marks et al., Assay Drug Dev Technol 1, 73-81 (2002); Marks et al., AAPS PharmSci 5, E18 (2003)), and purpald assays (Peters et al., J Am Chem Soc 125:13442-13450 (2003)). Since the heme domains were being used, the hydrogen peroxide was used to drive the reactions via the peroxide shunt (Cirino, P. C., and Arnold, F. H., Advanced Synthesis & Catalysis 344, 932-937 (2002)). The 4-AAP assay detects phenol-like compounds and consists of the addition of 40 μL of a 3.5× substrate solution (containing substrate concentrations dependent for each substrate) to 80 μL of lysate. […] Then a 7×(140 mM) H2O2 hydrogen peroxide solution was added resulting in a final concentration of 20 mM hydrogen peroxide. The reaction was mixed and left at room temperature without shaking for two hours and then quenched with 140 μL of 0.1 m NaOH and 4 M Urea. 38 μL of 0.6% 4-aminoantipyrine was added followed by blanking of the 96-well plate reader at 500 nm. 38 μL of 0.6% potassium persulfate was added and after 20 minutes the A500 was read. […]

Row | Molecule | substrate activity profile relative to parents [1] | fold higher peroxygenase activity with 2-phenoxy-ethanol than the most active parent (CYP102A1) [2] [fold] | peroxygenase activity on 2-phenoxy-ethanol ([2]; 100 mM substrate) | Peroxidase activity [3] | Tm [4] [°C] | activity on test substrates incl. novel substrates (diphenyl ether, allyloxy-benzene) [5]
1 | B1 | altered activity | 6 | highest activity | 6.8 nmol product/nmol P450/min | 55 | –
2 | B2 | – | – | – | – | – | activity that is novel
3 | B3 | – | – | – | – | – | activity that is novel
